This is an account of results in patent publication US20100144822.

In this data set the test system is Argyrin A.

In the case of “purified human erythrocyte derived 20S proteasome”, the “activity of the caspase-, chymotrypsin- and trypsin-like proteasome activities (fluorogenic peptide substrates)” value is “incubation of purified human 20S proteasome with Argyrin A led to a dose dependent inhibition of the caspase, trypsin and chymotrypsin like proteasome activities”.
